Data on 23 sequences can be found in the DeepSol protein solubility set.

This series in a line: soluble on expression in E. coli; label from the status in PepcDB or PDB records.
With “MGHHHHHHSHMTATVENLTFQKDTLGNAVDKNRRHGSTEPLVLAWSSQFRRLTWGCALDALHRSPCVAASQHGVTHLIRSSRTPHSTRCRKEDAQPGHHGNGAASVTAQARGQR”, the “soluble on expression in E. coli” value was “not soluble”.
With “MGHHHHHHSHMTLQALSEANRRLWMEAMDGKEPIYHSPITKQQEMELNEVGFKFVRKCINIIETKGIKTEGLYRTVGSNIQVQKLLNAFFDPKCPGDVDFHNSDWDIKTITSSLKFYLRNLSEPVMTYRLHKELVSAAKSDNLDYRLGAIHSLVYKLPEKNREMLELLIRHLVNVCEHSKENLMTPSNMGVIFGPTLMRAQEDTVAAMMNIKFQNIVVEILIEHFGKIYLGPPEESAAPPVPPPRVTARRHKP” the entry was “not soluble”.
Take “MGHHHHHHSHMTTNSLLIIDFEFTMPDGKYSPQNFFPEIIEAGIVKSIDDEVVETFSSYVRPKKFPKLTKRCKSFLKITQKQVDEGMRFEDFIRKLNELDPEKNSTIITWGNMDMKVLKQNCMFNHIPFPFKGEMRDLSLEYKNFFGDRTLTGLWKAAEEYGDSGTGTHHKALDDALTAYKLFKLVEQDKQYLEKPKPPTIGERIDLTELLKRAT”: the “soluble on expression in E. coli” value is “soluble”.
For “MGHHHHHHSHSEVAIKIDFDFAPGSFDDQYQGCSKQVMEKLTQGDYFTKDIEAQKNYFRMWQKAHLAWLNQGKVLPQNMTTTHAVAILFYTLNSNVHSDFTRAMASVARTPQQYERSFHFKYLHYYLTSAIQLLRKDSIMENGTLCYEVHYRTKDVHFNAYTGATIRFGQFLSTSLLKEEAQEFGNQTLFTIFTCLGAPVQYFSLKKEVLIPPYELFKVINMSYHPRGNWLQLRSTGNLSTYNCQLLKASSKKCIPDPIAIASLSFLTSVIIFSKSRV”, the “soluble on expression in E. coli” value was “not soluble”.
On to “MGHHHHHHSHTKSARVKGLSFHPKRPWILTSLHNGVIQLWDYRMCTLIDKFDEHDGPVRGIDFHKQQPLFVSGGDDYKIKVWNYKLRRCLFTLLGHLDYIRTTFFHHEYPWILSASDDQTIRVWNWQSRTCVCVLTGHNHYVMCAQFHPTEDLVVSASLDQTVRVWDISGLRKKNLSPGAVESDVRGITGVDLFGTTDAVVKHVLEGHDRGVNWAAFHPTMPLIVSGADDRQVKIWRMNESKAWEVDTCRGHYNNVSCAVFHPRQELILSNSEDKSIRVWDMSKRTG”, for which the “soluble on expression in E. coli” value is listed as “soluble”.
With “MGHHHHHHSHVNTLGPEGTSSEYAAKHFISNFTLLQGLNSKLSLHDTFESCIERTLQSPLEYTIVPHAYDGIKHFYMRPDLQLLQIFRCDTPMYGLAVRPDFEFRDDMLDTSVIVSHPSPINLIKYFTRKDVRFKLVNSTSQAARKVKEGLYDIALTNELARQKYGLTFVKTFKSIPMSWSLFGKGDV”, the “soluble on expression in E. coli” value is given as “soluble”.
With “MGHPARMAILSFLAKQESCFFGDIHEELPIAKATVSQHLKELKDAGLIQGEIETPKVRYCINKENWELARKLFAAFLGDCKCTGTSCCG” the entry was “not soluble”; with “MGHQVAIYDSRPFVGGKVGSWIDADGNHIEMGLHVFFFNYANLFALMRKVGAFENLLPKAHTHTFINKGGEVGELDFRFPIGAPFNGLKAFFTTSQLTWLDKLQSALALGTSPLVRGILDYEGAMKIIRALDRISFADWFRSHGGSEGSLKRMWNPIAYALGFIDTENISARCMLTVFQMFAAKTEASKLNLLAGSPAEYLHKPILDYIQARGATLHLQRRVREIEYTETNGQTVVTGLQIADGDAVERVEADVYLAACDVPGIQRLLPEAWRKWSEFDNIYKLDAVPVATVQLRFDGWVTELVDREKRHQLDHATGLDNLLYTADADFSCFTDLALSSPKDYYRKGQGSLLQCVLTPGDPFIAMKNEDIAQHVLKQVHELFPSSRDLNMTWSNVVKLAQSLYREAPGMDPFRPDQKTPIANFFLAGSYTQQDYIDSMEGATISGRRAAKAMLEAQAIAALEHHHHHH”, “not soluble”; with “MGICVVIPAFNAALTIEAVVRETLEQGLPLVVVDDGSEDGTADCVRGLPVNLVSHGRNRGKGAALKTGFAWALEYGFSGVITLDSDGQHDPTAITLLAETAKNDGWDILVASRFAQFNQMAGLRRHWNRFGAWCMKKRTGFQIDDSQSGFRYYSARLLRMVSLGKDGYDLEMEILMKAWQAGCTIGSVPVPARVADGRATSHFRPVRDTWNICMTFLRYMLEHHHHHH”, “not soluble”.
As to “MGISSSAPESLGFDTVLPPHLRQHSHPPAGISPKRFLCRDLWPAELPSPAVSSAVSGPTWPEGISAPVFGKQTHVPQRTGSQDCHSCDPTLPEWERKIPP”, the “soluble on expression in E. coli” value is “not soluble”.
As for “MGKLYVVPTPVGNLEDMTFRAIRVLKEVDLILAEDTRTSGILLKHFEIKNAMQSHHKFNEHKTVESVVNRIKAGETVALISDAGTPGISDPGFLVVRECVRNGIEVQCLPGATAFVPALVASGLPNEKFCFEGFLPQKKGRQTRLKALAEEHRTMVFYESPHRLLKTLTQFAEYFGTERQATVSREISKLHEETVRGSLAELIEHFTATEPRGEIVIVLAGIDD”, the “soluble on expression in E. coli” value is listed as “soluble”.
Then “MGKNEILWGIAPIGWRNDDMPEIGAGNTLQHLLSDIVVARFQGTEVGGFFPEPAILNKELKLRNLRIAGKWFSSFILRDGLGEAAKTFTLHCEYLQQVNADVAVVSEQTYSVQSLEKNVFTEKPHFTDDEWERLCEGLNHLGEIAAQHGLKLVYHHHLGTGVQTAEEVDRLMAGTDPAHVHLLYDTGHAYISDGDYMGMLEKHIGRIKHVHFKDARLNVMEQCRLEGQSFRQSFLKGMFTVPGDGCIDFREVYQLLLKHSYSGWIVIEAEQDPDVANPLEYALIARNYIDQQLLDLAMGHHHHHHSH”, with “soluble”; and “MGKRKTKEDNASEDYDANELMIVPGEKRKKLEKSGEKSATGGKKNRNFAKEKEVAKLTKQAKRKLAAVQSRKALKQTQEELFAGLAEFQLDPSKLCQLSSSTKLSKEPEKAPVFPEKLKVFSGKTKTEAKRTQQDYYPTDDESSSEEEEEEEEGDNDIEDAGNTVEVKIEPIDLDDVDEAIDGNPETNLDQIVVKREDDEESDNEDILALPTTTVINRKKVIVERSKEIQKSRAELPIFAEEMRIVEAINENLVTVVCGETGSGKTTQIPQFLYEAGYASEGELIGITEPRRVAAIAMAQRVGVELAKPDEVSYQIRYEGTRSETTNILFMTDGVLMKEMEQDVMLKKYSVILIDEAHERSMYSDVLIGMLSRIVPLRSKTARPLRLVIMSATLRLDDFTHKKLFPLLTPKVIKVDARQFPVSVHFEKRTPDDYIASAFRKTCRIHETLPPGAILVFVTGQHEVKQLITKLKKRYPVVYETDKNGEVLVKGTKEWKEKKVEAAKSIKLEDFKEETPETEDFEDVDDGLMDGDDMNERGAAEAFDDYEEFENGDGDLSDGKVENSIGAPPADCEPLYCLPLYSLLSMGKQRRVFDETPAGMRLCVISTNVAETSLTIPGVKYVIDGGFEKRRLYDSITGVSRFAVCRISQASGDQRAGRAGRISAGHAYRLYSSAVYQDFVKFADPEILSKPADQLVLHLKSMNIVKVVNFPFPSAPDEQMLESAEKRLCRLGALSESTKNGKTEARITKLGKTLAVFPLAPSYAKFIAMADQHNLMSHAILLISLLSVREPLIPVSSLRGDTPEETKELMKNVLKERRRWCSHTGARRLGDLKVLMHAASVAEQIKYNARECEKVGLRVKALVEARKLRQQLTNIVNASCKKEHAAALDSDLPPPTDQQAQLLRQMVVASFSDRLARRVDRSVGQEEVQKGAYETTLIKGHVFIDPCSVVFTEEPEFVIYQELVQVNEKKLMTSVCAVDKEWLSRLAESYCNYGEQDKNQEPIYDPVKDMVVKTVKVTFGPLNWELPNENRSVPHDIMMYRYFALFLLDGLVFEKLKEYTPKLLAPPSTMVKSWAKLQKRTEMLLNKLIEKEVTTRSSLKEQWLKNENWLLEEYLEWVPESVHQQISLMWPPLEDHEKTIKMGRNKKY”, with “not soluble”; and “MGKRVLIVDDATNGREAVEKYKELKPDIVTMDITMPEMNGIDAIKEIMKIDPNAKIIVCSAMGQQAMVIEAIKAGAKDFIVNTAAVENPSLITQIAQTFGSQAVVVAIDAKRVDGEFMVFTYSGKKNTGILLRDWVVEVEKRGAGEILLTSIDRDGTKSGYDTEMIRFVRPLTTLPIIASGGAGKMEHFLEAFLAGADAALAASVFHFREIDVRELKEYLKKHGVNVRLEGLLEHHH”, with “soluble”.
With “MGKTFTVGSLKHAVRSSERPISAAPPKPDGPSAVRPSVIQIEQKGKTFTVQPAPGVSLLDAALGQGVLLDHKCKKGTCGRCMVTVLAGAHLLAPKTRREREKTDQPAKRLACQAQIQ”, the “soluble on expression in E. coli” value is “not soluble”.
For the sequence “MGKVTIIAGGIKTESRLTGLTQLAANELVTNGLEVNIIEVHKINAEALVTADFAHSDIQLANSEIESSSGVIIATPIFKAAYSGVLKAYLDLLPLKALKGKVVLPLGLGGSNGHLLALQYALDPVLKELGAETILKGQFTVDKQIERLGDGLYEIESSAKERLDIALGQFISLLNQQSVEVLEHHHHHH”, the “soluble on expression in E. coli” value is reported as “soluble”.
As to “MGKYDALVELLLEAVKEGANIHQEDCSIPVGISNRHIHLSQADVNTLFGEGYSLTRIKDLSQPGQYACKETLTICGPKGAIENVRILGPERRESQVEILRTDCFKLGLKAPVKLSGELQGTPGMTLVGPKGSVLLSQGVIVAQRHIHMSLEDAQRFGVRDGELVTIQINGLRGGTYANVAIRANNTSQLECHIDTDEANGMDLTPTSRITIIK”, the “soluble on expression in E. coli” value was “not soluble”.
Regarding “MGKYFGTDGVRGVANSELTPELAFKVGRFGGYVLTKDKQRPKVLIGRDTRISGHMLEGALVAGLLSIGAEVMRLGVISTPGVSYLTKAMDAEAGVMISASHNPVQDNGIKFFGGDGFKLSDEQEAEIERLMDEPEDKLPRPVGADLGLVNDYFEGGQKYLQFLKQTADEDFTGIHVALDCANGATSSLATHLFADLDADVSTMGTSPNGLNINDGVGSTHPEALSAFVKEKNADLGLAFDGDGDRLIAVDEKGNIVDGDQIMYICSKHLKSEGRLKDDTVVSTVMSNLGFYKALEKEGIKSVQTAVGDRYVVEAMKKDGYNVGGEQSGHLIFLDYNTTGDGLLSAIMLMNTLKATGKPLSELAAEMQKFPQLLVNVRVTDKYKVEENEKVKAVISEVEKEMNGDGRILVRPSGTEPLVRVMAEAKTKELCDEYVNRIVEVVRSEMGLE”, the “soluble on expression in E. coli” value was “not soluble”.
Consider “MGLFASAPVDDGSMEIVRDFIQNMENDAQSSNKSAFADCFMDTFNFNVRGRIFTKALFVESYLTKPNPEPLILKSSIFTQGKNEIKFNVSHVVGPRTNIADFYLLREGEEGKWRLKSGIVIN”, for which the “soluble on expression in E. coli” value was “not soluble”.
With “MGLFDGLLGNATQNNNETAEKELRDVLIPNEKVDMAFTLVRDLIVFTDKRLILVDKQGITGKKVDYKSIPYKSISRFSVETSGHFDLDAELKIWISSTELPSVSLQFRKDKDIVAIQQALAAAVLS” the entry was “not soluble”; with “MGLFQSDKAAEEIDPPQDVTFVNDEAGANSNTTAAKKTESEKSDTAKADQASSTVMRELYLIDKNGYVVAQTLPLPKSESTAKQALEYLVQGGPVSEILPNGFRAVLPADTTVNVDIKKDGTAIADFSNEFKNYKKEDEQKIVQSVTWTLTQFSSIDKVKLRINGHELKEMPVGGTPISDDLSRKDGINLETAGVNDLTATHPLTVYYLAENEDSEYYVPVTKRIDNSEKDDITAAINELAKGPSKVSGLLTDFSEDVKLVSKPKIKDGRVTLDFNQSIFGSADEKTKMISSEVLNSIVLTLTEQPDVKSVSVKVNGKSELVNEKGEKLTEPVSRPSQVNTGSFLEHHHHHH”, “soluble”; with “MGLGSSKRKEEPPHKSEPKTVGRVKRAGARPDEMIAKYAEVLKTRGILPEYFLVHEAKSSQYIDEDGDVANEFYQETMSDGEKRRLCRLMKNLRPKGKERYAIPRLKHDIPVVIWEVQQPQET”, “not soluble”.
For “MGLQKKLNYKKTESERSFYRGSNLKQVMGEDIVSKFDYIGPIRWIFLNYCTGYFIFVEELTNNSEIRSDRLEFIDTMNKIFSEAEQYFNSAPKERPKNPKSLAEYKYLGYYRLSFSNTNPDNSAIIRLNDVEVEKSELPPLLNLDTDEILDYAV”, the “soluble on expression in E. coli” value is “not soluble”.
